# Assay results published in patent US20230159613A1 (published 2023).
# T1: KRAS G12V peptide on HLA-A*11:01 (human)
# T1 peptide: VVGAVGVGK
# T2: KRAS G12V peptide on HLA-A*11:01 (human)
# T2 peptide: VVVGAVGVGK
# T3: KRAS (short peptide without mutation) peptide on HLA-A*11:01 (human)
# T3 peptide: VVGAGGVGK
# T4: KRAS (short peptide without mutation) peptide on HLA-A*11:01 (human)
# T4 peptide: VVVGAGGVGK
# T5: KRAS G12D peptide on HLA-A*11:01 (human)
# T5 peptide: VVGADGVGK
# T6: KRAS G12D peptide on HLA-A*11:01 (human)
# T6 peptide: VVVGADGVGK
# T7: other antigen short peptide (source not named) peptide on HLA-A*11:01 (human)
# T7 peptide: SSCSSCPLSK
# Tests used:
# [1] = target: T1, KRAS G12V peptide on HLA-A*11:01; test: Kd or kinetics
# [2] = target: T2, KRAS G12V peptide on HLA-A*11:01; test: cytokine release
# [3] = target: T3, KRAS (short peptide without mutation) …; test: cytokine release
# [4] = target: T4, KRAS (short peptide without mutation) …; test: cytokine release
# [5] = target: T5, KRAS G12D peptide on HLA-A*11:01; test: cytokine release
# [6] = target: T6, KRAS G12D peptide on HLA-A*11:01; test: cytokine release
# [7] = target: T7, other antigen short peptide (source not …); test: cytokine release
Binder,binding result [1],binding result [2],binding result [3],binding result [4],binding result [5],binding result [6],binding result [7]
"KRAS G12V antigen short peptide-specific TCR of SEQ ID NOs 1 and 5 (TCR, V domains shown) Valpha: QKEVEQNSGPLSVPEGAIASLNCTYSDRVSQSFFWYRQYSGKSPELIMSIYSNGDKEDGRFTAQLNKASQYVSLLIRDSQPSDSATYLCASLKGNNDMRFGAGTRLTVKP Vbeta: GAGVSQSPRYKVAKRGQDVALRCDPISGHVSLFWYQQALGQGPEFLTYFQNEAQLDKSGLPSDRFFAERPEGSVSTLKIQRTQQEDSAVYLCASSSSRWEQQFFGPGTRLTVL",recognises,recognises,no recognition,no recognition,no recognition,no recognition,no recognition
"KRAS G12V antigen short peptide-specific soluble single chain TCR of SEQ ID NO 30 (TCR, V domains shown) Valpha: QKEVEQNSGPLSVPEGENVSINCTYSDRVSQSFFWYRQYSGKSPELIMSIYSNGDKEDGRFTAQLNKASQYVSLEIRDVQPSDSATYLCASLKGNNDMRFGAGTRLTVKP Vbeta: GAGVSQSPRYLSVKRGQDVTLRCDPISGHVSLFWYQQAPGQGPEFLTYFQNEAQLDKSGLPSDRFNAERPEGSVSTLKIQRVQPEDSAVYLCASSSSRWEQQFFGPGTRLTVD",recognises,,,,,,
